The target in series [1] is T1, 20-mer peptide substrate GEIIGGTECKPHSRPYMAYL (SEQ ID NO: 1).
T1 chain: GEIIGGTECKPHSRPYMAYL

Series [2] addresses T2, Dipeptide substrate Gly-Arg labeled with alpha-methylcoumarin (AMC).
T2 chain: GR

B1: Dipeptidyl peptidase I (DPPI) (protein)
chain 1: not shown
chain 2: LPTSWDWRNVHGINFVSPVRNQASCGSCYSFASMGMLEARIRILTNNSQTPILSPQEVVSCSQYAQGCEGGFPYLIAGKYAQDFGLVEEACFPYTGTDSPCKMKEDCFRYYSSEYHYVGGFYGGCNEALMKLELVHHGPMAVAFEVYDDFLHYKKGIYHHTGLR
chain 3: not shown
For the protein B1, in series [1], the KM was 62 µM; the Kcat entry is “about 62 µM, 1.15 sec^-1, and 1.95×10^4 M^-1sec^-1, respectively”; the kcat (Mmin^-1) stood at 1.15 s⁻¹. Also, in series [2], the KM was 64 µM and the kcat (Mmin^-1) was determined as 94.5 s⁻¹.

As a reminder, the KM is the substrate concentration at which the rate is half of its maximum.
